# B1: Pistol ribozyme (parent)
# chain: GGGUCGUUGUUCCAUAAUCGCGUGGAUAUGGCACGCAAGUUUCUACCGGGCACCGUAAAUGUCCGACUGGAGCCGUUCGGGCGGCUAUAAACAGACCUCAGGCCCGAAGCGUGGCGGCACCUGCCGCCGGUGGUAAAAAAGAUCGGAAGAGCACACGUCU
# Variants of: B1
# Experiment: aptazyme ON/OFF ratio, guanine; higher = stronger switching; co-transcriptional cleavage with and without guanine
row,Variant,aptazyme ON/OFF ratio
1,U7G U8A G9U U10C,3.13
2,U7G U8A G9U U10C U11A C12G C13A,1.1
3,U7G U8A G9U U10C U11A C12G C13U,1.09
4,U7G U8A G9U U10C U11A C12G C13G,1.07
5,U7G U8A G9C U10G U11G C13A,1.19
6,U7G U8A G9C U10G U11G C13G,1.1
7,U7G U8A G9C U10G U11G C13U,1.27
8,U7G U8A G9U U10A U11C C12U C13G,1.07
9,U7G U8A G9U U10A U11C C12U C13U,1.01
10,U7G U8A G9U U10A U11C C12U C13A,1.07
11,U7G U8A G9C U10G U11C C12A,1.04
12,U7G U8A G9C U10G U11C C12G,1.04
13,U7G U8A G9C U10G U11C C12U,1.05
14,U7G U8A G9C U10G U11A C12G C13G,1.04
15,U7G U8A G9C U10G U11A C12G C13U,1.07
16,U7G U8A G9C U10G U11A C12G C13A,1.01
17,U7G U8A G9C U11C C12A,1.11
18,U7G U8A G9C U11C C12G,1.05
19,U7G U8A G9C U11C C12U,1.11
20,U7G U8A G9C U11A C13A,1.05
21,U7G U8A G9C U11A C13G,1.02
22,U7G U8A G9C U11A C13U,1.04
23,U7G U8A G9U U10C U11C C12U C13U,1.06
24,U7G U8A G9U U10C U11C C12U C13G,1.06

row,Variant,aptazyme ON/OFF ratio
1,U7G U8A G9U U10C U11C C12U C13A,1.03
2,U7G U8A G9U U10C U11C C12A,1.09
3,U7G U8A G9U U10C U11C C12U,1.06
4,U7G U8A G9U U10C U11C C12G,1.08
5,U7G U8A G9U U10A U11G C12U,1.16
6,U7G U8A G9U U10A U11G C12G,1.08
7,U7G U8A G9U U10A U11G C12A,1.06
8,U7G U8A G9U,2.15
9,U7G U8A G9C U11G C13A,1.06
10,U7G U8A G9C U11G C13G,1.04
11,U7G U8A G9C U11G C13U,1.04
12,U7G U8A G9U U10G C12A C13A,1.11
13,U7G U8A G9U U10G C12A C13G,1.03
14,U7G U8A G9U U10G C12A C13U,1.08
15,U7G U8A G9U U10C U11G C12U,1.35
16,U7G U8A G9U U10C U11G C12A,1.06
17,U7G U8A G9U U10C U11G C12G,1.1
18,U7G U8A G9C U11C C12A C13U,1.06
19,U7G U8A G9C U11C C12A C13A,1.04
20,U7G U8A G9C U11C C12A C13G,1.04
21,U7G U8A G9C U10G C13U,1.1
22,U7G U8A G9C U10G C13A,1.11
23,U7G U8A G9C U10G C13G,1.09
24,U7G U8A G9U U10G U11C C12A,1.14

row,Variant,aptazyme ON/OFF ratio
1,U7G U8A G9U U10G U11C C12G,1.1
2,U7G U8A G9U U10G U11C C12U,1.05
3,U7G U8A G9C U10C U11C C12A C13U,1.03
4,U7G U8A G9C U10C U11C C12A C13G,1
5,U7G U8A G9C U10C U11C C12U C13U,1.01
6,U7G U8A G9C U10C U11C C12U C13A,1.02
7,U7G U8A G9C U10C U11C C12U C13G,1.04
8,U7G U8A G9U U10A U11A C12U C13U,1.06
9,U7G U8A G9U U10A U11A C12U C13G,1.07
10,U7G U8A G9U U10A U11A C12U C13A,1.07
11,U7G U8A G9U U10A U11G C12A C13G,1.06
12,U7G U8A G9U U10A U11G C12A C13U,1.09
13,U7G U8A G9U U10A U11G C12A C13A,1.09
14,U7G U8A G9U U10G C12G C13A,1.05
15,U7G U8A G9U U10G C12G C13G,1.07
16,U7G U8A G9U U10G C12G C13U,1.12
17,U7G U8A G9C U11G C12G,1.04
18,U7G U8A G9C U11G C12A,1.03
19,U7G U8A G9C U11G C12U,1.14
20,U7G U8A G9U U10C U11C C12G C13A,1.09
21,U7G U8A G9U U10C U11C C12G C13G,1.06
22,U7G U8A G9U U10C U11C C12G C13U,1.06
23,U7G U8A G9U U10G U11C C12U C13U,1.08
24,U7G U8A G9U U10G U11C C12U C13G,1.17

row,Variant,aptazyme ON/OFF ratio
1,U7G U8A G9U U10G U11C C12U C13A,1.07
2,U7G U8A G9U U10A U11A C12A,1.08
3,U7G U8A G9U U10A U11A C12U,1.09
4,U7G U8A G9U U10A U11A C12G,1.05
5,U7G U8A G9U U10A U11G C13U,1.09
6,U7G U8A G9U U10A U11G C13A,1.09
7,U7G U8A G9U U10A U11G C13G,1.03
8,U7G U8A G9C U11C C12G C13A,1.02
9,U7G U8A G9C U11C C12G C13G,1.03
10,U7G U8A G9C U11C C12G C13U,1.04
11,U7G U8A G9C U10C U11G C12G,1.03
12,U7G U8A G9C U10C U11G C12U,1.12
13,U7G U8A G9C U10C U11G C12A,1.08
14,U7G U8A G9U U10G U11C C13A,1.06
15,U7G U8A G9U U10G U11C C13G,1.04
16,U7G U8A G9U U10G U11C C13U,1.06
17,U7G U8A G9C U10G U11C C13A,1.03
18,U7G U8A G9C U10G U11C C13U,1.02
19,U7G U8A G9C U10G U11C C13G,1.06
20,U7G U8A G9U U10G U11C C12G C13U,1.21
21,U7G U8A G9U U10G U11C C12G C13G,1.03
22,U7G U8A G9U U10G U11C C12G C13A,1.09
23,U7G U8A G9C U11C C12U C13A,1.06
24,U7G U8A G9C U11C C12U C13U,1.03

row,Variant,aptazyme ON/OFF ratio
1,U7G U8A G9C U11C C12U C13G,1.08
2,U7G U8A G9C U10G U11A C13U,1.03
3,U7G U8A G9C U10G U11A C13G,1.02
4,U7G U8A G9C U10G U11A C13A,1.05
5,U7G U8A G9U U10G U11A C13A,1.06
6,U7G U8A G9U U10G U11A C13U,1.06
7,U7G U8A G9U U10G U11A C13G,1.06
8,U7G U8A G9U U10C C12G C13G,1.29
9,U7G U8A G9U U10C C12G C13A,1.28
10,U7G U8A G9U U10C C12G C13U,1.19
11,U7G U8A G9U U10A U11A C12A C13U,1.04
12,U7G U8A G9U U10A U11A C12A C13A,1.13
13,U7G U8A G9U U10A U11A C12A C13G,1.08
14,U7G U8A G9U U10C U11C,1.06
15,U7G U8A G9U U10C U11G,1.24
16,U7G U8A G9U U10C U11A,1.41
17,U7G U8A G9U U10C U11A C12U C13G,1.09
18,U7G U8A G9U U10C U11A C12U C13U,1.06
19,U7G U8A G9U U10C U11A C12U C13A,1.05
20,U7G U8A G9U U10G U11A,1.05
21,U7G U8A G9U U10G U11G,1.11
22,U7G U8A G9U U10G U11C,1.04
23,U7G U8A G9U C12G C13A,1.11
24,U7G U8A G9U C12G C13G,1.07

row,Variant,aptazyme ON/OFF ratio
1,U7G U8A G9U C12G C13U,1.17
2,U7G U8A G9U C12U,1.18
3,U7G U8A G9U C12A,1.06
4,U7G U8A G9U C12G,1.1
5,U7G U8A G9C U10G U11A C12A C13U,1.03
6,U7G U8A G9C U10G U11A C12A C13A,1.04
7,U7G U8A G9C U10G U11A C12A C13G,0.999
8,U7G U8A G9U U10G U11C C12A C13U,1.11
9,U7G U8A G9U U10G U11C C12A C13G,1.05
10,U7G U8A G9U U10G U11C C12A C13A,1.05
11,U7G U8A G9C U10C U11G,1.05
12,U7G U8A G9U U10A U11C C13A,1.04
13,U7G U8A G9U U10A U11C C13U,1.02
14,U7G U8A G9U U10A U11C C13G,1.02
15,U7G U8A G9U U10A U11A,1.46
16,U7G U8A G9U U10A U11G,1.09
17,U7G U8A G9U U10A U11C,1.03
18,U7G U8A G9C U10G U11G C12U,1.32
19,U7G U8A G9C U10G U11G C12G,1.06
20,U7G U8A G9C U10G U11G C12A,1.08
21,U7G U8A G9C U10G U11G C12G C13G,1.05
22,U7G U8A G9C U10G U11G C12G C13A,1.05
23,U7G U8A G9C U10G U11G C12G C13U,1.01
24,U7G U8A G9C U10G C12A C13U,1.05

row,Variant,aptazyme ON/OFF ratio
1,U7G U8A G9C U10G C12A C13G,1.03
2,U7G U8A G9C U10G C12A C13A,1.06
3,U7G U8A G9U U10G U11A C12G C13U,1.12
4,U7G U8A G9U U10G U11A C12G C13A,1.03
5,U7G U8A G9U U10G U11A C12G C13G,1.05
6,U7G U8A G9C U11A C12G C13A,1.04
7,U7G U8A G9C U11A C12G C13U,1.04
8,U7G U8A G9C U11A C12G C13G,1
9,U7G U8A G9U U10C U11C C12A C13U,1.09
10,U7G U8A G9U U10C U11C C12A C13G,1.23
11,U7G U8A G9U U10C U11C C12A C13A,1.09
12,U7G U8A G9U U10C C13A,1.11
13,U7G U8A G9U U10C C13U,1.38
14,U7G U8A G9U U10C C13G,1.06
15,U7G U8A G9U U10A U11A C12G C13A,1.05
16,U7G U8A G9U U10A U11A C12G C13U,1.06
17,U7G U8A G9U U10A U11A C12G C13G,1.09
18,U7G U8A G9U U10C U11G C13G,1.09
19,U7G U8A G9U U10C U11G C13U,1.09
20,U7G U8A G9U U10C U11G C13A,1.1
21,U7G U8A G9U U10C U11A C12A,1.12
22,U7G U8A G9U U10C U11A C12G,1.13
23,U7G U8A G9U U10C U11A C12U,1.11

# From the RNAGym collection of RNA variant scans (doi:10.1021/acssynbio.7b00057)
